The values that follow are results of earlier work, collected in article PMC10955226.

For this data set, the target named is WWC1 WW tandem (Homo sapiens) (UniProt Q8IX03).
Sequence of UniProt Q8IX03 (Q8IX03 6-86): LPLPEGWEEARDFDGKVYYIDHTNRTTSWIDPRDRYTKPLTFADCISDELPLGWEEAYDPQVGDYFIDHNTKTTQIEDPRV

For the substance JCAD PPxY motifs (from UniProt Q9P266), the dissociation constant (Kd) was 0.058 µM.
